From US20240317858A1 (Adimab, published 2024)
Substitutions are numbered along the chain they refer to.

B1: Antibody No. V007 (ADI-67450) Fab (Fab, V domains shown)
VH: QVQLVQSGAEVKKPGASVKVSCKASGFNIDDYYMHWVRQAPGQRLEWMGWIDLENANTIDDAKFQGRVTITRDTSASTAYMELSSLRSEDTAVYYCARDAYGRYFYDVWGQGTLVTVSS
VL: DIVMTQSPDSLAVSLGERATINCKSSQSLLNARTGKNYLAWYQQKPGQPPKLLIYWASTRESGVPDRFSGSGSGTDFTLTISSLQAEDVAVYYCKQSYSRRTFGGGTKVEIK
notes: Fab by papain digestion of the IgG1
B2: Antibody No. V011 (ADI-70328) Fab (Fab, V domains shown)
VH: B1 VH with M48I, A56D, I59V, D60Y
VL: B1 VL with T5S, E61S, K95V, S99F
notes: as for B1
B3: Antibody No. V013 (ADI-70330) Fab (Fab, V domains shown)
VH: B1 VH with M48I, I59V
VL: B1 VL with T5S, E61S, K95V, S99F
notes: as for B1

Assays:
[1] = target: T1, Human CD3εδ Fc heterodimer (Hu CD3ε Fc + CD3δ Fc-HIS) (human, UniProt P07766 22-126; P04234 22-100); experiment: BLI (Octet), Fab monovalent, pH 7.4
T1 construct: range 22-126;range 22-100; Made in HEK 293 cells with a heterologous signal peptide; also called Hu CD3εδ-Fc; CD3εδ Fc-HIS heterodimer; not shown: Fc; Fc followed by HIS tag
T1 sequence (P07766 22-126, stated change not applied, form in doubt, chain 1 of 2): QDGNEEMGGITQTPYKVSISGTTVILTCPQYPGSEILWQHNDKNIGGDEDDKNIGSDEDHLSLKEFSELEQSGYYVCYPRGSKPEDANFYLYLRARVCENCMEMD
T1 sequence (P04234 22-100, stated change not applied, form in doubt, chain 2 of 2): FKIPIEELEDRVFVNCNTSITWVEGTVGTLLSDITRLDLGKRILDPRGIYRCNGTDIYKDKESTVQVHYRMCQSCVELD

[2] = target: T2, Cynomolgus CD3εδ Fc heterodimer (Cy CD3ε Fc + CD3δ Fc-HIS) (cynomolgus, UniProt Q95LI5 22-117; Q95LI8 22-100); experiment: BLI (Octet), Fab monovalent, pH 7.4
T2 construct: range 22-117;range 22-100; Made in HEK 293 cells with a heterologous signal peptide; also called Cy CD3εδ-Fc; cyno CD3εδ Fc; not shown: Fc; Fc followed by HIS tag
T2 sequence (Q95LI5 22-117, stated change not applied, form in doubt, chain 1 of 2): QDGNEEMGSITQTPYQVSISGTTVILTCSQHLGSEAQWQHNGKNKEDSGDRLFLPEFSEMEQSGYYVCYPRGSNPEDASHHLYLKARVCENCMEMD
T2 sequence (Q95LI8 22-100, stated change not applied, form in doubt, chain 2 of 2): as the sequence (P04234 22-100, stated change not applied, form in doubt, chain 2 of 2) above, with I5V, N15K, I20V, S32T, D33N, I34N, T64A, S74N counted along it

[3] = target: T3, Rhesus CD3εδ Fc heterodimer (rhesus); experiment: BLI (Octet), Fab monovalent, pH 7.4
T3 construct: extracellular domain; also called Rh CD3εδ-Fc

[4] = target: T1, Human CD3εδ Fc heterodimer (Hu CD3ε Fc …); experiment: SPR (Biacore), Fab over immobilized CD3εδ Fc, pH 6.0
[5] = target: T2, Cynomolgus CD3εδ Fc heterodimer (Cy …); experiment: as above
[6] = target: T1, Human CD3εδ Fc heterodimer (Hu CD3ε Fc …); experiment: BLI (Octet), Fab monovalent, pH 6.0
[7] = target: T2, Cynomolgus CD3εδ Fc heterodimer (Cy …); experiment: BLI (Octet), Fab monovalent, pH 6.0
[8] = target: T1, Human CD3εδ Fc heterodimer (Hu CD3ε Fc …); experiment: SPR (Biacore), Fab over Hu CD3εδ-Fc; sensorgram inset labelled V007, tied by a line to an open square (PSR-optimized antibody); pH not given on the sheet
[9] = target: T1, Human CD3εδ Fc heterodimer (Hu CD3ε Fc …); experiment: BLI (Octet), CD3εδ Fc on AHC sensor, 100 nM Fab
[10] = target: T2, Cynomolgus CD3εδ Fc heterodimer (Cy …); experiment: BLI (Octet), CD3εδ Fc on AHC sensor, 100 nM Fab
[11] = target: T1, Human CD3εδ Fc heterodimer (Hu CD3ε Fc …); experiment: SPR (Biacore), Fab over immobilized CD3εδ Fc, pH 7.4
[12] = target: T2, Cynomolgus CD3εδ Fc heterodimer (Cy …); experiment: as above
[13] = target: T4, Human CD3 on CD3+ Jurkat cells (human, UniProt P07766 23-207); experiment: flow cytometry, Fab titration
T4 construct: whole, on cells; Target is the endogenous CD3 complex on cells; also called Human CD3+ Jurkat cells
T4 sequence (P07766 23-207): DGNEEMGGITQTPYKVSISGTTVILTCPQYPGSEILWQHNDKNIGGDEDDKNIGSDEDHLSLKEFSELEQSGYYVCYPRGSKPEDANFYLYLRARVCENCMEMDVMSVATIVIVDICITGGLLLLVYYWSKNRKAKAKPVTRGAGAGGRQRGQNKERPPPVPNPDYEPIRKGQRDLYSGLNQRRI
Protocol: Further FACS analysis was conducted using 3-fold serial dilutions of anti-CD3 antibody Fab fragments. Fab fragments were generated from whole IgG antibodies by papain digestion and purified over KappaSelect or CaptureSelect IgG-CH1 (GE Healthcare LifeSciences) before preparation of serial dilutions. Binding to human CD3+ Jurkat cells and Cynomolgus monkey CD3 HSC-F cells was assessed with each diluted sample and results were used to build a titration curve and calculate half maximal effective concentration (EC50) values for Fab binding.

[14] = target: T1, Human CD3εδ Fc heterodimer (Hu CD3ε Fc …); experiment: SPR (Biacore), Fab over Hu CD3εδ-Fc; sensorgram inset labelled V013, tied by a line to an open square (PSR-optimized antibody); pH not given on the sheet

Binder	Kd [1]	Kd [2]	Kd [3]	Kd [4]	Kd [5]	Kd [6]	Kd [7]	Kd [8]	Kd [9]	Kd [10]	Kd [11]	Kd [12]	EC50 [13]	Kd [14]
B1	7.4 nM	8.7 nM	9.2 nM	2.8 nM	2.1 nM	6.9 nM	6.9 nM	3.7 nM	5.39 nM	5.03 nM	4 nM	2.7 nM	–	–
B2	–	–	–	–	–	–	–	–	0.82 nM	0.86 nM	–	–	2.77 nM	–
B3	2.4 nM	2.4 nM	2.5 nM	1.6 nM	0.27 nM	1.6 nM	1.9 nM	–	1.16 nM	1.23 nM	0.18 nM	0.22 nM	–	0.681 nM
